Experimental data taken from patent US20230077205A1.

How the values were obtained:
[1] = molecular target: Protein A, MabSelect Sure (protein A affinity resin ligand); experiment: resin slurry partitioning on MabSelect Sure protein A resin; reference Ab6; Equil/wash: 10 mM NaPhosphate, pH 6.5
[2] = molecular target: Protein A, MabSelect Sure (protein A affinity resin ligand); experiment: resin slurry partitioning on MabSelect Sure protein A resin; reference Ab6; Strip: 100 mM acetic acid
[3] = molecular target: Protein A, MabSelect Sure (protein A affinity resin ligand); experiment: resin slurry partitioning on MabSelect Sure protein A resin; reference Ab6; High salt wash: 10 mM NaPhosphate, pH 6.5, 0.5M NaCl
[4] = molecular target: Protein A, MabSelect Sure (protein A affinity resin ligand); experiment: resin slurry partitioning on MabSelect Sure protein A resin; reference Ab6; Elute: 20 mM NaAcetate, pH 3.5

| log α (log Kp PLBL2 - log Kp Ab6) [1] | log α (log Kp PLBL2 - log Kp Ab6) [2] | log α (log Kp PLBL2 - log Kp Ab6) [3] | log α (log Kp PLBL2 - log Kp Ab6) [4] | Substance |
| --- | --- | --- | --- | --- |
| -2 | 0 | -2 |  | PLBL2 (enzyme) |
|  |  |  | -0.3 | PLBL2 |
